Data published in US20240400708A1.
Numbering of substitutions follows the chain as printed. In names and notes the source's numbering stands.

B1: feline IgG1a S254W (antibody, part only; not given: Variable domains, not shown: another chain or arm of the molecule)
constant: ASTTAPSVFPLAPSCGTTSGATVALACLVLGYFPEPVTVSWNSGALTSGVHTFPAVLQASGLYSLSSMVTVPSSRWLSDTFTCNVAHPPSNTKVDKTVRKTDHPPGPKPCDCPKCPPPEMLGGPSIFIFPPKPKDTLSIWRTPEVTCLVVDLGPDDSDVQITWFVDNTQVYTAKTSPREEQFNSTYRVVSVLPILHQDWLKGKEFKCKVNSKSLPSPIERTISKAKGQPHEPQVYVLPPAQEELSRNKVSVTCLIKSFHPPDIAVEWEITGQPEPENNYRTTPPQLDSDGTYFVYSKLSVDRSHWQRGNTYTCSVSHEALHSHHTQKSLTQSPGK
B2: feline IgG1a S252Y/S434F (antibody, part only; not given: Variable domains, not shown: another chain or arm of the molecule)
constant: B1 constant with S138Y, W140S, S322F
B3: feline IgG1a Q311L (antibody, part only; not given: Variable domains, not shown: another chain or arm of the molecule)
constant: B1 constant with W140S, Q197L
B4: feline IgG1a S434E (antibody, part only; not given: Variable domains, not shown: another chain or arm of the molecule)
constant: B1 constant with W140S, S322E
B5: feline IgG1a D312H (antibody, part only; not given: Variable domains, not shown: another chain or arm of the molecule; small tags and cut ends)
constant: B1 constant with W140S, D198H
B6: feline IgG1a T256W (antibody, part only; not given: Variable domains, not shown: another chain or arm of the molecule)
constant: B1 constant with W140S, T142W
B7: feline IgG1a S252Y/S428Y (antibody, part only; not given: Variable domains, not shown: another chain or arm of the molecule)
constant: B1 constant with S138Y, W140S, S316Y
B8: feline IgG1a S254Y (antibody, part only; not given: Variable domains, not shown: another chain or arm of the molecule)
constant: B1 constant with W140Y
B9: feline IgG1a Q311W/S434Y (antibody, part only; not given: Variable domains, not shown: another chain or arm of the molecule)
constant: B1 constant with W140S, Q197W, S322Y
B10: feline IgG1a S434V (antibody, part only; not given: Variable domains, not shown: another chain or arm of the molecule)
constant: B1 constant with W140S, S322V
B11: feline IgG1a P247V (antibody, part only; not given: Variable domains, not shown: another chain or arm of the molecule)
constant: B1 constant with P133V, W140S
B12: feline IgG1a P247L (antibody, part only; not given: Variable domains, not shown: another chain or arm of the molecule)
constant: B1 constant with P133L, W140S
B13: feline IgG1a H436G (antibody, part only; not given: Variable domains, not shown: another chain or arm of the molecule)
constant: B1 constant with W140S, H324G
B14: feline IgG1a P247I (antibody, part only; not given: Variable domains, not shown: another chain or arm of the molecule)
constant: B1 constant with P133I, W140S
B15: feline IgG1a T256E (antibody, part only; not given: variable domains and light chain, not shown: another chain or arm of the molecule)
constant: B1 constant with W140S, T142E
B16: feline IgG1a T250E (antibody, part only; not given: Variable domains, not shown: another chain or arm of the molecule)
constant: B1 constant with T136E, W140S
B17: feline IgG1a T256L (antibody, part only; not given: Variable domains, not shown: another chain or arm of the molecule)
constant: B1 constant with W140S, T142L
B18: feline IgG1a S434A (antibody, part only; not given: Variable domains, not shown: another chain or arm of the molecule)
constant: B1 constant with W140S, S322A
B19: feline IgG1a T250I (antibody, part only; not given: Variable domains, not shown: another chain or arm of the molecule)
constant: B1 constant with T136I, W140S
B20: feline IgG1a A431V (antibody, part only; not given: Variable domains, not shown: another chain or arm of the molecule)
constant: B1 constant with W140S, A319V
B21: feline IgG1a D401R (antibody, part only; not given: Variable domains, not shown: another chain or arm of the molecule)
constant: B1 constant with W140S, D289R
B22: feline IgG1a H436K (antibody, part only; not given: Variable domains, not shown: another chain or arm of the molecule)
constant: B1 constant with W140S, H324K
B23: feline IgG1a T256C (antibody, part only; not given: Variable domains, not shown: another chain or arm of the molecule)
constant: B1 constant with W140S, T142C
B24: feline IgG1a T256Q (antibody, part only; not given: Variable domains, not shown: another chain or arm of the molecule)
constant: B1 constant with W140S, T142Q
B25: feline IgG1a E430I (antibody, part only; not given: Variable domains, not shown: another chain or arm of the molecule)
constant: B1 constant with W140S, E318I
B26: feline IgG1a T256P (antibody, part only; not given: Variable domains, not shown: another chain or arm of the molecule)
constant: B1 constant with W140S, T142P
B27: feline IgG1a E430Q (antibody, part only; not given: Variable domains, not shown: another chain or arm of the molecule)
constant: B1 constant with W140S, E318Q
B28: feline IgG1a T256D (antibody, part only; not given: Variable domains, not shown: another chain or arm of the molecule)
constant: B1 constant with W140S, T142D
B29: feline IgG1a Q311W/D312P/L314K (antibody, part only; not given: Variable domains, not shown: another chain or arm of the molecule)
constant: B1 constant with W140S, Q197W, D198P, L200K
B30: feline IgG1a H436R (antibody, part only; not given: Variable domains, not shown: another chain or arm of the molecule)
constant: B1 constant with W140S, H324R
B31: feline IgG1a T256G (antibody, part only; not given: variable domains and light chain, not shown: another chain or arm of the molecule)
constant: B1 constant with W140S, T142G
B32: feline IgG1a D399T (antibody, part only; not given: Variable domains, not shown: another chain or arm of the molecule)
constant: B1 constant with W140S, D287T
B33: feline IgG1a T256I (antibody, part only; not given: Variable domains, not shown: another chain or arm of the molecule)
constant: B1 constant with W140S, T142I
B34: feline IgG1a S252Y/S428Y/S434Y (antibody, part only; not given: variable domains and light chain, not shown: another chain or arm of the molecule)
constant: B1 constant with S138Y, W140S, S316Y, S322Y
B35: feline IgG1a T256V (antibody, part only; not given: Variable domains, not shown: another chain or arm of the molecule)
constant: B1 constant with W140S, T142V
B36: feline IgG1a T256H (antibody, part only; not given: Variable domains, not shown: another chain or arm of the molecule)
constant: B1 constant with W140S, T142H
B37: feline IgG1a T256M (antibody, part only; not given: Variable domains, not shown: another chain or arm of the molecule)
constant: B1 constant with W140S, T142M
B38: feline IgG1a S252Y/S434F/Q311W (antibody, part only; not given: Variable domains, not shown: another chain or arm of the molecule)
constant: B1 constant with S138Y, W140S, Q197W, S322F
B39: feline IgG1a H436M (antibody, part only; not given: Variable domains, not shown: another chain or arm of the molecule)
constant: B1 constant with W140S, H324M
B40: feline IgG1a S434C (antibody, part only; not given: Variable domains, not shown: another chain or arm of the molecule)
constant: B1 constant with W140S, S322C
B41: feline IgG1a T256K (antibody, part only; not given: Variable domains, not shown: another chain or arm of the molecule)
constant: B1 constant with W140S, T142K
B42: feline IgG1a S252Y/D312P (antibody, part only; not given: Variable domains, not shown: another chain or arm of the molecule; small tags and cut ends)
constant: B1 constant with S138Y, W140S, D198P
B43: feline IgG1a S434T (antibody, part only; not given: Variable domains, not shown: another chain or arm of the molecule)
constant: B1 constant with W140S, S322T
B44: feline IgG1a T256Y (antibody, part only; not given: Variable domains, not shown: another chain or arm of the molecule)
constant: B1 constant with W140S, T142Y
B45: feline IgG1a D249A (antibody, part only; not given: Variable domains, not shown: another chain or arm of the molecule)
constant: B1 constant with D135A, W140S
B46: feline IgG1a A431Q (antibody, part only; not given: Variable domains, not shown: another chain or arm of the molecule)
constant: B1 constant with W140S, A319Q
B47: feline IgG1a D249S (antibody, part only; not given: Variable domains, not shown: another chain or arm of the molecule)
constant: B1 constant with D135S, W140S
B48: feline IgG1a S252Y/S428Y/Q311W (antibody, part only; not given: Variable domains, not shown: another chain or arm of the molecule)
constant: B1 constant with S138Y, W140S, Q197W, S316Y
B49: feline IgG1a T256N (antibody, part only; not given: Variable domains, not shown: another chain or arm of the molecule)
constant: B1 constant with W140S, T142N
B50: feline IgG1a S252Y/S434Y (antibody, part only; not given: Variable domains, not shown: another chain or arm of the molecule)
constant: B1 constant with S138Y, W140S, S322Y
B51: feline IgG1a D249E (antibody, part only; not given: Variable domains, not shown: another chain or arm of the molecule)
constant: B1 constant with D135E, W140S
B52: feline IgG1a S252Y/L314K (antibody, part only; not given: Variable domains, not shown: another chain or arm of the molecule)
constant: B1 constant with S138Y, W140S, L200K
B53: feline IgG1a T250Q (antibody, part only; not given: Variable domains, not shown: another chain or arm of the molecule)
constant: B1 constant with T136Q, W140S
B54: feline IgG1a T256A (antibody, part only; not given: Variable domains, not shown: another chain or arm of the molecule)
constant: B1 constant with W140S, T142A
B55: feline IgG1a T256R (antibody, part only; not given: Variable domains, not shown: another chain or arm of the molecule)
constant: B1 constant with W140S, T142R
B56: feline IgG1a S434D (antibody, part only; not given: Variable domains, not shown: another chain or arm of the molecule)
constant: B1 constant with W140S, S322D
B57: feline IgG1a S252Y/Q311W/S434Y (antibody, part only; not given: Variable domains, not shown: another chain or arm of the molecule)
constant: B1 constant with S138Y, W140S, Q197W, S322Y
B58: feline IgG1a A431R (antibody, part only; not given: Variable domains, not shown: another chain or arm of the molecule)
constant: B1 constant with W140S, A319R
B59: feline IgG1a T250S (antibody, part only; not given: Variable domains, not shown: another chain or arm of the molecule)
constant: B1 constant with T136S, W140S
B60: feline IgG1a T256S (antibody, part only; not given: Variable domains, not shown: another chain or arm of the molecule)
constant: B1 constant with W140S, T142S
B61: feline IgG1a L432S (antibody, part only; not given: Variable domains, not shown: another chain or arm of the molecule)
constant: B1 constant with W140S, L320S
B62: feline IgG1a T250V (antibody, part only; not given: Variable domains, not shown: another chain or arm of the molecule)
constant: B1 constant with T136V, W140S

molecular target: feline FcRn complex (FcRn-α subunit and β-microglobulin), biotin labeled (feline); experiment: SPR, pH 6

Binder	Kd
B1	60.9 nM
B2	1970 nM
B3	6.38 nM
B4	3.35 nM
B5	7.33 nM
B6	25.2 nM
B7	17.2 nM
B8	78.5 nM
B9	27 nM
B10	3.71 nM
B11	5.21 nM
B12	4.72 nM
B13	10.9 nM
B14	4.51 nM
B15	50.9 nM
B16	6.07 nM
B17	86.5 nM
B18	4.49 nM
B19	4.66 nM
B20	7.08 nM
B21	4.77 nM

Binder	Kd
B22	6.91 nM
B23	154 nM
B24	58.6 nM
B25	5.89 nM
B26	57.6 nM
B27	6.58 nM
B28	244 nM
B29	1230 nM
B30	5.69 nM
B31	76.9 nM
B32	6.75 nM
B33	115 nM
B34	78.1 nM
B35	19.5 nM
B36	87.4 nM
B37	19.3 nM
B38	164 nM
B39	8.25 nM
B40	11.8 nM
B41	107 nM
B42	10.5 nM

Binder	Kd
B43	10.6 nM
B44	22 nM
B45	5.41 nM
B46	6.64 nM
B47	5.24 nM
B48	67.7 nM
B49	77.4 nM
B50	116 nM
B51	5.84 nM
B52	10.9 nM
B53	4.35 nM
B54	40.6 nM
B55	27.7 nM
B56	5.66 nM
B57	97.2 nM
B58	6.73 nM
B59	4.94 nM
B60	2140 nM
B61	6.58 nM
B62	6.87 nM
